Legend:
[1] = target: T1, SARS-CoV-2 刺突糖蛋白S (重组S抗原) (SARS-CoV-2, UniProt P0DTC2 16-1213); experiment: ELISA, coated S antigen 2 μg/mL, HRP anti-human Fc
[2] = target: T1, SARS-CoV-2 刺突糖蛋白S (重组S抗原); experiment: BLI (Fortebio Octet QKe), 4A8 captured on AHC sensors, S protein as analyte
[3] = target: T2, SARS-CoV-2 S2抗原 (重组) (SARS-CoV-2, UniProt P0DTC2 686-1213); experiment: ELISA, coated S2 antigen 2 μg/mL
T2 construct: domain: S2

[4] = target: T3, SARS-CoV-2 RBD抗原 (重组) (SARS-CoV-2, UniProt P0DTC2 319-541); experiment: ELISA, coated RBD antigen 2 μg/mL
T3 construct: domain: RBD

B1: 抗SARS-CoV-2全人源单克隆抗体4A8 (antibody, V domains shown)
VH: EVQLVESGAEVKKPGASVKVSCKVSGYTLTELSMHWVRQAPGKGLEWMGGFDPEDGETMYAQKFQGRVTMTEDTSTDTAYMELSSLRSEDTAVYYCATSTAVAGTPDLFDYYYGMDVWGQGTTVTVSS
VL: EIVMTQSPLSSPVTLGQPASISCRSSQSLVHSDGNTYLSWLQQRPGQPPRLLIYKISNRFSGVPDRFSGSGAGTDFTLKISRVEAEDVGVYYCTQATQFPYTFGQGTKVDIK
notes: also called 单抗4A8
Work on B1 yielded an EC50 [1] of 4.6 ng/mL, a Kd [2] of 1 nM and a koff [2] of 7.77e-05 s⁻¹. The kon [2] was 77500 M⁻¹ s⁻¹, the binding result [3] was “no binding (tested: 首孔9ug/ml)” and the binding result [4] was “no binding (tested: 首孔9ug/ml)”.

— patent publication CN111303280A (INST MILITARY MEDICINE ACADEMY MILITARY SCIENCES PLA, dated 2020)
